Consider 13 molecules from US10253078 (ZEALAND PHARMA A S, dated 2019).

Common to all, as to assay: cell-based or functional assay
The target in test [1] is T1, human GIP receptor (human, UniProt P48546 22-466).
T1 sequence (looked up): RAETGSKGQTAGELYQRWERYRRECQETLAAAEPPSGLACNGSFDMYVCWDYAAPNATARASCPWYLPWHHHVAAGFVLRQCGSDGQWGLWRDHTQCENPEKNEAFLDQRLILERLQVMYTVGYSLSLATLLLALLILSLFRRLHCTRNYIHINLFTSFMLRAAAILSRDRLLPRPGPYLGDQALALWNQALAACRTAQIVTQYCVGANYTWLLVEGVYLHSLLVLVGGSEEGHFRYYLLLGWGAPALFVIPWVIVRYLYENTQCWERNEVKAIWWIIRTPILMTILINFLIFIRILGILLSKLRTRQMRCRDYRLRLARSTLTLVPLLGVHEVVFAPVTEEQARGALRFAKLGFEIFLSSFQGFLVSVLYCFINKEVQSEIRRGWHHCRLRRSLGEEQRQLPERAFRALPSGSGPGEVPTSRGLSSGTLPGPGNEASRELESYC

For test [2], the target named is T1, human GIP receptor. This is another data set of the same source.
The next test has as its target human GLP-1 receptor (human, UniProt P43220 24-463).

Starred links: 1 amine or outer side, 2 acyl side, 3 side chain; linkers in the order of their positions; H or OH if unused. Non-standard residues stand in square brackets, D forms with d. Groups on a side chain read outwards from the residue. *: point of attachment. C20 diacid = O=C(O)CCCCCCCCCCCCCCCCCCC(=O)*; γGlu = O=C(O)[C@H](CCC(=O)[*:2])N[*:1]; Aib = CC(C)(N)C(=O)O

B1: Compound 10 (peptide)
peptide: H-Y[Aib]EGTFISDYSIELDKK([Peg3-Peg3-γGlu-C20 diacid])AAQDFVNWLLAQGPSSGAPPPS-NH2
In the case of B1, the “EC50, hGIP-R level of cAMP (HEK293 cells expressing human GIP R)” value (from here on “EC50, hGIP-R level of cAMP”) in the test with human GIP receptor [1] came out at 0.007 nM. Further, the “EC50 hGIP R (cAMP, HEK293 cells expressing the GIP R)” value (“EC50 hGIP R” for short) in the test with human GIP receptor [2] stood at 0.008 nM. Further, the “EC50 hGLP1 R (cAMP, HEK293 cells expressing the GLP-1R)” value (from here on “EC50 hGLP1 R”) with human GLP-1 receptor is above 10 nM.

B2: Compound 26 (peptide)
peptide: YAEGTFISDYSIELDKIAAQDFIEWLLAGPSSGAPPPSK
modifications: Aib at 2; Lys 39 side chain acylated: K((19-Carboxy-nonadecanoyl)-[(Piperazine-1-yl)-acetyl]-Peg3-Peg3); C-terminal amide (-NH2)
In the case of B2, in the test with human GIP receptor [1], the “EC50, hGIP-R level of cAMP” value is 0.017 nM. For the same molecule, the “EC50 hGIP R” value with human GIP receptor [2] was found to be 0.032 nM. Moreover, the “EC50 hGLP1 R” value with human GLP-1 receptor is above 10 nM.

B3: Compound 37 (peptide)
peptide: YXEGTFISDYSIELDKIAAQDFIEWLLAGPSSGAPPPSK
modifications: D-Ala at 2; Lys 39 side chain acylated: K((19-Carboxy-nonadecanoyl)-[(Piperazine-1-yl)-acetyl]-Peg3-Peg3); C-terminal amide (-NH2)
Regarding B3, in the test with human GIP receptor [1], the “EC50, hGIP-R level of cAMP” value is 0.016 nM. For the same molecule, the “EC50 hGIP R” value with human GIP receptor [2] turned out to be 0.006 nM. Besides, the “EC50 hGLP1 R” value in the test with human GLP-1 receptor was above 10 nM.

B4: Compound 36 (peptide)
peptide: H-Y[dA]EGTFISDYSIELDKK([Peg3-Peg3-γGlu-C20 diacid])AQRAFIEWLLAQGPSSGAPPPS-NH2
Take B4: the “EC50, hGIP-R level of cAMP” value with human GIP receptor [1] was found to be 0.006 nM. Moreover, the “EC50 hGIP R” value with human GIP receptor [2] is 0.006 nM. Moreover, in the test with human GLP-1 receptor, the “EC50 hGLP1 R” value was above 10 nM.

B5: Compound 24 (peptide)
peptide: H-Y[Aib]EGTFISDYSIELDKIAQKEFIEWLLAGPSSGAPPPSK([Peg3-Peg3-γGlu-C20 diacid])-NH2
As to B5, in the test with human GIP receptor [1], the “EC50, hGIP-R level of cAMP” value is 0.008 nM. Moreover, the “EC50 hGIP R” value with human GIP receptor [2] worked out at 0.01 nM. In addition, the “EC50 hGLP1 R” value with human GLP-1 receptor was above 10 nM.

B6: Compound 19 (peptide)
peptide: YAEGTFISDYSIELDKKAQRAFIEWLLAQGPSSGAPPPS
modifications: Aib at 2; Lys 17 side chain acylated: K((19-Carboxy-nonadecanoyl)-[(Piperazine-1-yl)-acetyl]-Peg3-Peg3); C-terminal amide (-NH2)
As for B6, the “EC50, hGIP-R level of cAMP” value with human GIP receptor [1] was determined as 0.006 nM. Further, the “EC50 hGIP R” value with human GIP receptor [2] came out at 0.005 nM. Also, in the test with human GLP-1 receptor, the “EC50 hGLP1 R” value is above 3 nM.

B7: Compound 20 (peptide)
peptide: YAEGTFISDYSIELDKKAQRAFVEWLLAQGPSSGAPPPS
modifications: Aib at 2; Lys 17 side chain acylated: K((19-Carboxy-nonadecanoyl)-[(Piperazine-1-yl)-acetyl]-Peg3-Peg3); C-terminal amide (-NH2)
For B7, the “EC50, hGIP-R level of cAMP” value with human GIP receptor [1] is 0.007 nM. Further, the “EC50 hGIP R” value with human GIP receptor [2] was 0.006 nM. Also, the “EC50 hGLP1 R” value in the test with human GLP-1 receptor is above 3 nM.

B8: Compound 21 (peptide)
peptide: YAEGTFISDYSIELDKKAQKEFVEWLLAAGPSSGAPPPS
modifications: Aib at 2; Lys 17 side chain acylated: K((19-Carboxy-nonadecanoyl)-[(Piperazine-1-yl)-acetyl]-Peg3-Peg3); C-terminal amide (-NH2)
As for B8, the “EC50, hGIP-R level of cAMP” value with human GIP receptor [1] turned out to be 0.007 nM. Moreover, in the test with human GIP receptor [2], the “EC50 hGIP R” value was 0.006 nM. The “EC50 hGLP1 R” value in the test with human GLP-1 receptor was above 3 nM.

B9: Compound 41 (peptide)
peptide: YAEGTFISDYSIELDKKAAQAFIEWLLAQGPSSGAPPPS
modifications: Aib at 2; Lys 17 side chain acylated: K((19-Carboxy-nonadecanoyl)-[(Piperazine-1-yl)-acetyl]-Peg3-Peg3); C-terminal amide (-NH2)
On to B9, for which, in the test with human GIP receptor [1], the “EC50, hGIP-R level of cAMP” value came out at 0.014 nM. For the same molecule, the “EC50 hGIP R” value in the test with human GIP receptor [2] was found to be 0.01 nM. The “EC50 hGLP1 R” value in the test with human GLP-1 receptor was above 10 nM.

B10: Compound 25 (peptide)
peptide: H-Y[Aib]EGTFISDYSIELDKIAAQDFIEWLLAGPSSGAPPPSK([Peg3-Peg3-γGlu-C20 diacid])-NH2
With B10, in the test with human GIP receptor [1], the “EC50, hGIP-R level of cAMP” value worked out at 0.032 nM. The “EC50 hGIP R” value with human GIP receptor [2] was 0.008 nM. Moreover, in the test with human GLP-1 receptor, the “EC50 hGLP1 R” value is above 100 nM.

B11: Compound 33 (peptide)
peptide: YAEGTFISDYSIELDKKAAQDFIEWLLAGPSSGAPPPS
modifications: Aib at 2; Lys 17 side chain acylated: K((19-Carboxy-nonadecanoyl)-[(Piperazine-1-yl)-acetyl]-Peg3-Peg3); C-terminal amide (-NH2)
Take B11: the “EC50, hGIP-R level of cAMP” value with human GIP receptor [1] came out at 0.014 nM. The “EC50 hGIP R” value with human GIP receptor [2] was 0.02 nM. Besides, the “EC50 hGLP1 R” value with human GLP-1 receptor is above 10 nM.

B12: Compound 31 (peptide)
peptide: H-Y[Aib]EGTFISDYSIELDKK([Peg3-Peg3-γGlu-C20 diacid])AAQDFINWLLAGPSSGAPPPS-NH2
Take B12: in the test with human GIP receptor [1], the “EC50, hGIP-R level of cAMP” value came out at 0.012 nM. The “EC50 hGIP R” value with human GIP receptor [2] worked out at 0.009 nM. The “EC50 hGLP1 R” value with human GLP-1 receptor is above 100 nM.

B13: Compound 29 (peptide)
peptide: H-Y[Aib]EGTFISDYSIELDKK([Peg3-Peg3-γGlu-C20 diacid])AAQAFVNWLLAGPSSGAPPPS-NH2
Take B13: the “EC50, hGIP-R level of cAMP” value with human GIP receptor [1] worked out at 0.014 nM. Besides, the “EC50 hGIP R” value with human GIP receptor [2] came to 0.007 nM. Moreover, the “EC50 hGLP1 R” value with human GLP-1 receptor was above 100 nM.
